This passage reports activity results from US20200340016.

Test in all cases: cell_activity
The test system of data set [1] is ZFN pair 52742-ELD / 52774-KKR K387S K387S (FokI of 52774) (artificial). To be noted: 400 ng mRNA.
Data set [2] has as its system ZFN pair 52742-ELD / 52774-KKR K525S K525S (FokI of 52774) (artificial). To be noted: 400 ng mRNA.
Data set [3] concerns ZFN pair 52742-ELD / 52774-KKR R416S R416S (FokI of 52774) (artificial). To be noted: 400 ng mRNA.
Data set [4] relates to ZFN pair 52742-ELD R422S / 52774-KKR R422S (FokI of 52742) (artificial). To be noted: 400 ng mRNA.
In data set [5] the test system is ZFN pair 52742-ELD R447S / 52774-KKR R447S (FokI of 52742) (artificial). To be noted: 400 ng mRNA.
Data set [6] relates to ZFN pair 52742-F1RQ;F3RQ;F5RQ / 52774 R(-5)Q in F1, F3 and F5 of 52742 (artificial). To be noted: 6 ug dose.
Data set [7] concerns ZFN pair SBS52742-ELD / SBS52774-KKR (TRAC) (artificial).
In data set [8] the test system is ZFN pair SBS51857-ELD / SBS51949-KKR (BCL11A) (artificial).
Data set [9] deals with ZFN pair SBS51857-ELD / SBS51949-KKR K448S K448S (FokI of 51949) (artificial). Particulars: 60 ug/mL each mRNA.
Data set [10] concerns ZFN pair SBS51857-ELD / SBS51949-KKR K525S K525S (FokI of 51949) (artificial). To be noted: 60 ug/mL each mRNA.
Data set [11] deals with ZFN pair SBS51857-ELD / SBS51949-KKR R416S R416S (FokI of 51949) (artificial).
The test system of data set [12] is ZFN pair SBS51857-ELD / SBS51949-KKR R447S R447S (FokI of 51949) (artificial). Particulars: CD34+ cells, near background.
Data set [13] has as its system ZFN pair SBS63014 / SBS65526 (3x R-5Q / 4x R-5Q + FokI R416S) three and four finger R(-5)Q; FokI R416S in 65526 (artificial). Particulars: 60 ug dose.
The subject of data set [14] is ZFN pair SBS63014 / SBS65527 (3x R-5Q / 5x R-5Q + FokI R416S) three and five finger R(-5)Q; FokI R416S in 65527 (artificial). To be noted: 60 ug dose; no evidence of cleavage.
Data set [15] deals with ZFN pair SBS63014 / SBS65721 (3x R-5Q / 3x R-5Q + FokI R416S) three finger R(-5)Q in each ZFN; FokI R416S in 65721 (artificial). Particulars: 60 ug dose.
The subject of data set [16] is ZFN pair 30035 / 30054 (AAVS1) (artificial).
Data set [17] deals with ZFN pair 30035 / 30054 ELD_KKR_I479T I479T (FokI, both ZFNs) (artificial).
The subject of data set [18] is ZFN pair 30035 / 30054 ELD_KKR_K525A K525A (FokI, both ZFNs) (artificial).
Data set [19] has as its system ZFN pair 30035 / 30054 ELD_KKR_K525P K525P (FokI, both ZFNs) (artificial).
In data set [20] the test system is ZFN pair 30035 / 30054 ELD_KKR_Q481E Q481E (FokI, both ZFNs) (artificial).
Data set [21] deals with ZFN pair 30035 / 30054 ELD_KKR_R416D R416D (FokI, both ZFNs) (artificial).
In data set [22] the test system is ZFN pair 30035 / 30054 ELD_KKR_R416E R416E (FokI, both ZFNs) (artificial).
Where [23] appears, read: CD34+ cells, 2 ug mRNA each ZFN.

For the substance “CCATATGCAGAAAACAGAAACTGTACCCCTTCCTTACACC (double strand) [off-target XSKWTVWD (OT16)]”, the activity in [1] was determined as 3.12 % indels; in data set [2], 0.96 % indels; in data set [3] it was 0.74 % indels; in [4], 1.18 % indels; in [5] it was 0.32 % indels; in data set [6] (parent 19.16), 1.43 % indels. In addition, the activity in [7] (400 ng mRNA each ZFN) was 7.39 % indels.

As for “CCGGAGAGAAGGCTCCGGTTCAGCACTGAGATCAGGACGG (double strand) [off-target KXWACMTR (OT3)]”, the activity in data set [6] (parent 1.59) stood at 0.19 % indels; in data set [7] (6 ug dose), 1.59 % indels.

For “TCCTCCATGCTCAGAAAGCCTTTCTTGGAGCCAGGCACACAGGAAATGTTAGCTAGTTAGCATTGGCTCTAATACT (double strand) [off-target PEVYOHIU (OT3)]”, the activity in data set [8] (setting [23]) came to 0.65 % indels; in data set [9], 4.4 % indels; in data set [10] it was 0.13 % indels; in [11] (setting [23]), 0.08 % indels; in data set [12] it was 0.03 % indels; in data set [13] (no evidence of cleavage), 0.02 % indels. In addition, the activity in data set [14] is 0.02 % indels; in [15] (parent 4.77), 0.04 % indels.

As for “CCTACCCCCACCACCTCACCTTCCCTCAGCCTTGTGTTTCAGCCCCAGTTAGCTGCCCTTAGTTGCTGATGTATTG (double strand) [off-target GJZEIYTO (OT2)]”, the values for the activity in [8] (60 ug/mL each mRNA) and in data set [11] (60 ug/mL each mRNA) were 2.81 % indels and 0.31 % indels, respectively.

Turning to AAVS1 intended target, the activity in [16] was found to be 57.8 % indels; in data set [17], 52.5 % indels; in data set [18], 73.8 % indels; in [19] it was 0.01 % indels; in data set [20] it was 69.9 % indels; in data set [21], 70.6 % indels. In addition, the activity in data set [22] is 91.1 % indels.

As to “TCAGTGATTGGGTTCCGAATCCTCCTCCTGAAAGTGGCCG (double strand) [TRAC intended target JBSCKVMP]”, the activity in [1] turned out to be 89.1 % indels; in data set [2], 88.3 % indels; in data set [3] it was 87.1 % indels; in data set [4], 89 % indels; in [5] it was 70.3 % indels; in data set [6] (parent 62.59) it was 70 % indels. Moreover, the activity in [7] (400 ng mRNA each ZFN) is 90.7 % indels.

With “GACTCATTCATCCACTCATTCTGAGCACTTGCTGCACACTAGGCCCTGGGCTGGGGCTTCAGCCCAGGAGTTCACT (double strand) [off-target ZJCRPAXW (OT4)]”, the activity in [8] (60 ug/mL each mRNA) stood at 1.12 % indels; in [11] (60 ug/mL each mRNA) it was 0.65 % indels.

With “TGGCCCTTTGCAGAAAAGGTTGTTGAACCCTACCGTAAAC (double strand) [off-target XVFENVRX (OT11)]”, the activity in data set [1] was found to be 3.27 % indels; in data set [2], 0.79 % indels; in data set [3] it was 0.93 % indels; in [4], 1.09 % indels; in data set [5], 0.14 % indels; in [6] (parent 4.32), 0.47 % indels. This substance returned an activity in data set [7] (400 ng mRNA each ZFN) of 5.82 % indels.

As for “CTTCCTGCGGGGTTTTGTGCAAATAACCCATGCTCGGGAGCGAGGCCCTGGGAAGGAGTATCTCGCTTCTTTGGGT (double strand) [off-target NIFMAEVG (OT1)]”, the activity in [8] (setting [23]) is 9.04 % indels; in [9] (parent 21.96) it was 8.9 % indels; in data set [10] (parent 21.96), 0.89 % indels; in data set [11] (setting [23]) it was 0.75 % indels; in [12] it was 0.05 % indels; in [13] it was 0.17 % indels. In addition, the activity in [14] is 0.03 % indels; in [15] (parent 28.0), 0.55 % indels.
